Laboratory results as given in publication PMC11435032, “Development of Biolayer Interferometry (BLI)-Based Double-Stranded RNA Detection Method with Application in mRNA-Based Therapeutics and Vaccines”.

What was measured:
[1] = tested on: J2 anti-dsRNA antibody; test: BLI; conditions: kinetic, BLI (Octet RED384): 10 mM Tris pH 8.0, 100 mM NaCl, 0.1 mg/mL yeast tRNA, 0.1 mM EDTA, 0.05% Tween-20, temperature not stated
[2] = tested on: B2 (FHV B2 1-73) (Flock House Virus); test: BLI; conditions: BLI (Octet RED384): 10 mM Tris pH 8.0, 100 mM NaCl, 0.1 mg/mL yeast tRNA, 0.1 mM EDTA, 0.05% Tween-20, temperature not stated
[3] = tested on: K1 anti-dsRNA antibody; test: BLI; conditions: BLI (Octet RED384): 10 mM Tris pH 8.0, 100 mM NaCl, 0.1 mg/mL yeast tRNA, 0.1 mM EDTA, 0.05% Tween-20, temperature not stated
[4] = target: B2-Biotin (B2-Avi) (Flock House Virus, UniProt P68831 1-73); test: BLI; avidity surface; lower asymptote than long dsRNA; BLI (Octet RED384): 10 mM Tris pH 8.0, 100 mM NaCl, 0.1 mg/mL yeast tRNA, 0.1 mM EDTA, 0.05% Tween-20; temperature not stated; conditions: protein: recombinant; tags: N-terminal 6xHis; C-terminal GS linker-AviTag, biotinylated by BirA in vivo; chain copies: 2; blunt
[5] = U replaced by N1-methylpseudouridine

B2-Biotin (B2-Avi), sequence (P68831 1-73): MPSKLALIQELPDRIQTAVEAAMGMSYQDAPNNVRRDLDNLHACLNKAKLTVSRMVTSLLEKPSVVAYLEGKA

With 700 bp-m1ψ the Kd [1, 5] was 56 nM and the Kd [2, 5] was 669 nM.

For 700 bp-ψ, the Kd ([1]; U replaced by pseudouridine) was 32 nM and the Kd ([2]; U replaced by pseudouridine) was 405 nM.

700 bp-U was tested, and the Kd [3] was 325 nM, the Kd [1] was 27 nM and the Kd [2] was 62 nM.

In the case of 700 bp-5 moU, the binding signal (fold weaker than 700 bp-U) ([3]; Kd value missing in material, U replaced by 5-methoxyuridine) is reported as 4, the Kd ([1]; U replaced by 5-methoxyuridine) is reported as 131 nM and the Kd ([2]; U replaced by 5-methoxyuridine) is reported as 948 nM.

B1: 25 bp-m1ψ dsRNA (dsRNA)
RNA 1: CACGUACCGUUCUAGCGGGCUCUCG
RNA 2: CGAGAGCCCGCUAGAACGGUACGUG
modifications: U replaced by N1-methylpseudouridine
B1: binds [4].

B2: 25 bp-U dsRNA (dsRNA)
RNA 1: CACGUACCGUUCUAGCGGGCUCUCG
RNA 2: CGAGAGCCCGCUAGAACGGUACGUG
B2: binds [4].
